Data on two substances can be found in patent US20190032036.

Common to all, as to test: cell_activity
Data set [1] concerns SpCas9 H982A H982A (Streptococcus pyogenes).
Data set [2] concerns the target SpCas9 K1003A K1003A (Streptococcus pyogenes) (UniProt Q99ZW2).
The target of data set [3] is SpCas9 K810A K810A (Streptococcus pyogenes) (UniProt Q99ZW2).
For data set [4], the target named is SpCas9 K848A K848A (Streptococcus pyogenes) (UniProt Q99ZW2).
For data set [5], the target named is SpCas9 K855A (Streptococcus pyogenes) (UniProt Q99ZW2).
Data set [6] concerns the target SpCas9 R1060A R1060A (Streptococcus pyogenes) (UniProt Q99ZW2).
Data set [7] has as its target SpCas9 R780A R780A (Streptococcus pyogenes) (UniProt Q99ZW2).
The test system of data set [8] is SpCas9 R976A R976A (Streptococcus pyogenes).

Turning to EMX1(1) sgRNA guide ; EMX1 OT25, the activity in data set [1] (WT 10.5) came to 0.5 % indel; in data set [2] (WT 10.5), 4.1 % indel; in data set [3] (WT 10.5), 0.1 % indel; in data set [4] (WT 10.5) it was 0.1 % indel; in data set [5] (WT 10.5, on-target 25.1 in same table), 0.2 % indel; in data set [6] (WT 10.5), 1.3 % indel. Also, the figures for the activity in data set [7] (WT 10.5) and in data set [8] (WT 10.5) were 0 % indel and 0.1 % indel, respectively.

For EMX1(1) sgRNA guide ; EMX1 OT46, the activity was determined as 0.4 % indel in data set [1] (WT 8.8); 2.8 % indel in data set [2] (WT 8.8); 0.1 % indel in data set [3] (WT 8.8); 0.1 % indel in data set [4] (WT 8.8); 0.3 % indel in data set [5] (WT 8.8); 1.8 % indel in data set [6] (WT 8.8). Moreover, the activity in data set [7] (WT 8.8) and in data set [8] (WT 8.8) was 0.1 % indel throughout.
